Measurements as given in IntAct's records for PubMed 25910212.

B1: U4/U6 small nuclear ribonucleoprotein Prp31 (Homo sapiens), Q8WWY3 (parent)
chain: MSLADELLADLEEAAEEEEGGSYGEEEEEPAIEDVQEETQLDLSGDSVKTIAKLWDSKMFAEIMMKIEEYISKQAKASEVMGPVEAAPEYRVIVDANNLTVEIENELNIIHKFIRDKYSKRFPELESLVPNALDYIRTVKELGNSLDKCKNNENLQQILTNATIMVVSVTASTTQGQQLSEEELERLEEACDMALELNASKHRIYEYVESRMSFIAPNLSIIIGASTAAKIMGVAGGLTNLSKMPACNIMLLGAQRKTLSGFSSTSVLPHTGYIYHSDIVQSLPPDLRRKAARLVAAKCTLAARVDSFHESTEGKVGYELKDEIERKFDKWQEPPPVKQVKPLPAPLDGQRKKRGGRRYRKMKERLGLTEIRKQANRMSFGEIEEDAYQEDLGFSLGHLGKSGSGRVRQTQVNEATKARISKTLQRTLQKQSVVYGGKSTIRDRSSGTASSVAFTPLQGLEIVNPQAAEKKVAEANQKYFSSMAEFLKVKGEKSGLMST
partner: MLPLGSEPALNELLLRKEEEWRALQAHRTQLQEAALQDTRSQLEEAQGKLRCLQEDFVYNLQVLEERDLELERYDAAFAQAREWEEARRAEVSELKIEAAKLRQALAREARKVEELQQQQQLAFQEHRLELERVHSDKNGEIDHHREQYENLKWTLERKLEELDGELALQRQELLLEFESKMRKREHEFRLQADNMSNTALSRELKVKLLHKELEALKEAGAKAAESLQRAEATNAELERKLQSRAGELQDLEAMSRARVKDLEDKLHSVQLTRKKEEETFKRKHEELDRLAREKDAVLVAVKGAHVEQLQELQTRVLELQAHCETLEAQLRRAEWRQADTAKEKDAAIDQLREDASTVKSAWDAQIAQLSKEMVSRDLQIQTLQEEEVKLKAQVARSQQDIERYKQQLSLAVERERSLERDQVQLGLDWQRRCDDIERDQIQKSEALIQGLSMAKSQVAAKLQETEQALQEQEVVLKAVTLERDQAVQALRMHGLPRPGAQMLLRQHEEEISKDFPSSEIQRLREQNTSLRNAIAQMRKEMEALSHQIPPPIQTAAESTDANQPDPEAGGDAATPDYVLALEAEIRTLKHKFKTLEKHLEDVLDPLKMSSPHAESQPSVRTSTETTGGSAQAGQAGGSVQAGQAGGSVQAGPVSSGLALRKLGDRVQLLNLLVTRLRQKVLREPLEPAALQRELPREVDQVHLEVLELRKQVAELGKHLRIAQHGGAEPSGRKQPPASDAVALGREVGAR
B2: Polycomb complex protein BMI-1 (Homo sapiens), P35226 (parent)
chain: MHRTTRIKITELNPHLMCVLCGGYFIDATTIIECLHSFCKTCIVRYLETSKYCPICDVQVHKTRPLLNIRSDKTLQDIVYKLVPGLFKNEMKRRRDFYAAHPSADAANGSNEDRGEVADEDKRIITDDEIISLSIEFFDQNRLDRKVNKDKEKSKEEVNDKRYLRCPAAMTVMHLRKFLRSKMDIPNTFQIDVMYEEEPLKDYYTLMDIAYIYTWRRNGPLPLKYRVRPTCKRMKISHQRDGLTNAGELESDSGSDKANSPAGGIPSTSSCLPSPSTPVQSPHPQFPHISSTMNGTSNSPSGNHQSSFANRPRKSSVNGSSATSSG
partner: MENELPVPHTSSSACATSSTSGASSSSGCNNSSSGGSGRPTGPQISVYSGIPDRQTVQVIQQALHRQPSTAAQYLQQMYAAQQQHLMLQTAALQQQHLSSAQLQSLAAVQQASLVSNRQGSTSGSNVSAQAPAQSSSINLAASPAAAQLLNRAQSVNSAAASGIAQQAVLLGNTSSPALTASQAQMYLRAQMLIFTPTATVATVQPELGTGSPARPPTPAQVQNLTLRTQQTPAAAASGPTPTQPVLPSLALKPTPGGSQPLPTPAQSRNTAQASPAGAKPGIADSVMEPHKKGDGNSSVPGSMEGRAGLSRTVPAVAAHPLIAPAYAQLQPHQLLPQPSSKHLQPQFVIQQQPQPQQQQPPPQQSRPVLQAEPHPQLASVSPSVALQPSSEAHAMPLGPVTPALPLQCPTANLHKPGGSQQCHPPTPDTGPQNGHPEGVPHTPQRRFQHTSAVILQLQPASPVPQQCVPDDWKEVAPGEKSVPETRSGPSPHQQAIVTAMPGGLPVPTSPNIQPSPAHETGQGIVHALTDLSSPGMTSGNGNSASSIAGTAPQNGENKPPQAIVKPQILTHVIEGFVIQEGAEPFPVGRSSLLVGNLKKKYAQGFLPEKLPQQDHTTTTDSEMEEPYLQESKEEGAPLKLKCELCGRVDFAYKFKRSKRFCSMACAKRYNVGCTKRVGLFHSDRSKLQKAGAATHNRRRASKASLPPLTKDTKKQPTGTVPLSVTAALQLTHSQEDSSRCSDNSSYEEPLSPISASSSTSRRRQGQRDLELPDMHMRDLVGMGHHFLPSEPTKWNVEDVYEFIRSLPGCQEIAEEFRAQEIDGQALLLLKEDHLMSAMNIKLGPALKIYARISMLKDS
B3: LHFPL tetraspan subfamily member 5 protein (Homo sapiens), Q8TAF8 (parent)
chain: MVKLLPAQEAAKIYHTNYVRNSRAVGVMWGTLTICFSVLVMALFIQPYWIGDSVNTPQAGYFGLFSYCVGNVLSSELICKGGPLDFSSIPSRAFKTAMFFVALGMFLIIGSIICFSLFFICNTATVYKICAWMQLAAATGLMIGCLVYPDGWDSSEVRRMCGEQTGKYTLGHCTIRWAFMLAILSIGDALILSFLAFVLGYRQDKLLPDDYKADGTEEV
partner: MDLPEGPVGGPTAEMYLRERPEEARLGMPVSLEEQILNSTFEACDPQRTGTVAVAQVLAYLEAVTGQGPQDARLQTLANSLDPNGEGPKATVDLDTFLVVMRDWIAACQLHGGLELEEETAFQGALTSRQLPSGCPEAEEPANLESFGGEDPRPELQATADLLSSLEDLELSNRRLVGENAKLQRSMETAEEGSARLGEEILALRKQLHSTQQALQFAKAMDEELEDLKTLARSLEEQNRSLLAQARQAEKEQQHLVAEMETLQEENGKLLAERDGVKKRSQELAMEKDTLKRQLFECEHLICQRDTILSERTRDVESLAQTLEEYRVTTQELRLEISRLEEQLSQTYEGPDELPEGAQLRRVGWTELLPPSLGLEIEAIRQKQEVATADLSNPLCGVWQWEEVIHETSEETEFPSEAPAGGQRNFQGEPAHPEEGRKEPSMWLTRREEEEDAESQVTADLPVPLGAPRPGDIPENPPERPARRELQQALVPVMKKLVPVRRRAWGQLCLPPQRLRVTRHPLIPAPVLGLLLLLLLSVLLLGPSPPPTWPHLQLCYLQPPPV
B4: U4/U6 small nuclear ribonucleoprotein Prp31 (Homo sapiens), Q8WWY3 (parent)
chain: B1 chain
partner: B2 partner
B5: Mothers against decapentaplegic homolog 3 (Homo sapiens), P84022 (parent)
chain: MSSILPFTPPIVKRLLGWKKGEQNGQEEKWCEKAVKSLVKKLKKTGQLDELEKAITTQNVNTKCITIPRSLDGRLQVSHRKGLPHVIYCRLWRWPDLHSHHELRAMELCEFAFNMKKDEVCVNPYHYQRVETPVLPPVLVPRHTEIPAEFPPLDDYSHSIPENTNFPAGIEPQSNIPETPPPGYLSEDGETSDHQMNHSMDAGSPNLSPNPMSPAHNNLDLQPVTYCEPAFWCSISYYELNQRVGETFHASQPSMTVDGFTDPSNSERFCLGLLSNVNRNAAVELTRRHIGRGVRLYYIGGEVFAECLSDSAIFVQSPNCNQRYGWHPATVCKIPPGCNLKIFNNQEFAALLAQSVNQGFEAVYQLTRMCTIRMSFVKGWGAEYRRQTVTSTPCWIELHLNGPLQWLDKVLTQMGSPSIRCSSVS
partner: B2 partner

Variants of: B1
Conditions: with CCDC57, Q2TAC2-2
MSLADELLADLEEAAEEEEGGSYGEEEEEPAIEDVQEETQLDLSGDSVKTIAKLWDSKMFAEIMMKIEEYISKQAKASEVMGPVEAAPEYRVIVDANNLTVEIENEVNIIHKFIRDKYSKRFPELESLVPNALDYIRTVKELGNSLDKCKNNENLQQILTNATIMVVSVTASTTQGQQLSEEELERLEEACDMALELNASKHRIYEYVESRMSFIAPNLSIIIGASTAAKIMGVAGGLTNLSKMPACNIMLLGAQRKTLSGFSSTSVLPHTGYIYHSDIVQSLPPDLRRKAARLVAAKCTLAARVDSFHESTEGKVGYELKDEIERKFDKWQEPPPVKQVKPLPAPLDGQRKKRGGRRYRKMKERLGLTEIRKQANRMSFGEIEEDAYQEDLGFSLGHLGKSGSGRVRQTQVNEATKARISKTLQRTLQKQSVVYGGKSTIRDRSSGTASSVAFTPLQGLEIVNPQAAEKKVAEANQKYFSSMAEFLKVKGEKSGLMST [L107V] was tested, and the “effect of a mutation on the interaction” value was “with no effect”.

Variants of: B2
Conditions: with PHC2, Q8IXK0-5
For MHRTTRIKITELNPHLMYVLCGGYFIDATTIIECLHSFCKTCIVRYLETSKYCPICDVQVHKTRPLLNIRSDKTLQDIVYKLVPGLFKNEMKRRRDFYAAHPSADAANGSNEDRGEVADEDKRIITDDEIISLSIEFFDQNRLDRKVNKDKEKSKEEVNDKRYLRCPAAMTVMHLRKFLRSKMDIPNTFQIDVMYEEEPLKDYYTLMDIAYIYTWRRNGPLPLKYRVRPTCKRMKISHQRDGLTNAGELESDSGSDKANSPAGGIPSTSSCLPSPSTPVQSPHPQFPHISSTMNGTSNSPSGNHQSSFANRPRKSSVNGSSATSSG [C18Y], the “effect of a mutation on the interaction” value was “disrupting interaction strength”.

Variants of: B3
Conditions: with kash5_human KASH5, Q8N6L0
For MVKLLPAQEAAKIYHTNYVRNSRAVGVMWGTLTICFSVLVMALFIQPYWIGDSVNTPQAGYFGLFSYCVGNVLSSELICKGGPLDFSSIPSRAFKTAMFFVALGMFLIIGSIICFSLFFICNTATVCKICAWMQLAAATGLMIGCLVYPDGWDSSEVRRMCGEQTGKYTLGHCTIRWAFMLAILSIGDALILSFLAFVLGYRQDKLLPDDYKADGTEEV [Y127C], the “effect of a mutation on the interaction” value was “with no effect”. For MVKLLPAQEAAKIYHTNYVRNSRAVGVMWGTLTICFSVLVMALFIQPYWIGDSVNTPQAGYFGLFSYCVGNVLSSELICKGGPLDFSSIPSRAFKTAMFFVALGMFLIIGSIICFSLFFICNTATVYKICAWMQLAAATGLMIGCLVYPDGWDSSEVRRMCGEQMGKYTLGHCTIRWAFMLAILSIGDALILSFLAFVLGYRQDKLLPDDYKADGTEEV [T165M], the “effect of a mutation on the interaction” value was “with no effect”.

Variants of: B4
Conditions: with PHC2, Q8IXK0-5
MSLADELLADLEEAAEEEEGGSYGEEEEEPAIEDVQEETQLDLSGDSVKTIAKLWDSKMFAEIMMKIEEYISKQAKASEVMGPVEAAPEYRVIVDANNLTVEIENEVNIIHKFIRDKYSKRFPELESLVPNALDYIRTVKELGNSLDKCKNNENLQQILTNATIMVVSVTASTTQGQQLSEEELERLEEACDMALELNASKHRIYEYVESRMSFIAPNLSIIIGASTAAKIMGVAGGLTNLSKMPACNIMLLGAQRKTLSGFSSTSVLPHTGYIYHSDIVQSLPPDLRRKAARLVAAKCTLAARVDSFHESTEGKVGYELKDEIERKFDKWQEPPPVKQVKPLPAPLDGQRKKRGGRRYRKMKERLGLTEIRKQANRMSFGEIEEDAYQEDLGFSLGHLGKSGSGRVRQTQVNEATKARISKTLQRTLQKQSVVYGGKSTIRDRSSGTASSVAFTPLQGLEIVNPQAAEKKVAEANQKYFSSMAEFLKVKGEKSGLMST [L107V] was tested, and the “effect of a mutation on the interaction” value was “with no effect”.

Variants of: B5
Conditions: with PHC2, Q8IXK0-5
N197I was tested, and the “effect of a mutation on the interaction” value was “with no effect”.
